Test results reported in patent US6423680B1, “Inhibitor of platelet activating factor” (HSC Research and Development Limited Partnership, priority 1998, dated 2002).

What was measured:
β-hexosaminidase A = molecular target: T1, β-hexosaminidase A (Homo sapiens, UniProt P06865+P07686); assay: Conventional biological assay: co-factor for hydrolysis of GM2 ganglioside by β-hexosaminidase A; format: biochemical
T1 sequence (P06865 89-529): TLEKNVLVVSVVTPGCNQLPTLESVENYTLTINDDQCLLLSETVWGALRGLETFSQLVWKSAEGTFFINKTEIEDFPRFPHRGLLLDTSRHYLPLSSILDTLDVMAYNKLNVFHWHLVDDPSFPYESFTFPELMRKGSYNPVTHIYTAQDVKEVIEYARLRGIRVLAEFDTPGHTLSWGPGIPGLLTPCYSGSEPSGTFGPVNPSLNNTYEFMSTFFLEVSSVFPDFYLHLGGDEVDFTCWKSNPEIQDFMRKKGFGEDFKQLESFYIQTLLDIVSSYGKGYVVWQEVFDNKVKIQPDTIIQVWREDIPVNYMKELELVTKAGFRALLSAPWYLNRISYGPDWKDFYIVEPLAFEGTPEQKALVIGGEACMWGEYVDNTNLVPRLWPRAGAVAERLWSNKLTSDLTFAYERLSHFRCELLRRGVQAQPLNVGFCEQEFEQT
T1 sequence (P07686 122-556): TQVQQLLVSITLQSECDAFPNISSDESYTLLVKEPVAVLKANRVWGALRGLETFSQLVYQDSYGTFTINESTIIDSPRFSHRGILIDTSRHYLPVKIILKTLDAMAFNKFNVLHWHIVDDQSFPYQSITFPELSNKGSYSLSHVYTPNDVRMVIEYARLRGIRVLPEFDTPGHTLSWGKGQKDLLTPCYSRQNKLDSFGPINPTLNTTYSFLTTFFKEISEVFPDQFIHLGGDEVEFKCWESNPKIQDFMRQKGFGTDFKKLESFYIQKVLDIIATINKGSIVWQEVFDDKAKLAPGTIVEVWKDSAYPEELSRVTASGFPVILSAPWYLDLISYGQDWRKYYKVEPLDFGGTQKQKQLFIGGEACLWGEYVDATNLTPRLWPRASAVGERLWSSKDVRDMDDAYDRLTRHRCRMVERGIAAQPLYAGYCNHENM
T1 sequence (P17900 32-193 partner): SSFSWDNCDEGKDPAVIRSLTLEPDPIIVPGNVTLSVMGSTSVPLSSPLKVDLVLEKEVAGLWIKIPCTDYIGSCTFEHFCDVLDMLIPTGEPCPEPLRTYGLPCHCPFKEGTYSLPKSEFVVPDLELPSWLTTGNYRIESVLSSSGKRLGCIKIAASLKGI
Excerpt: The conventional biological assay for the GM2 activator involves its function as a substrate specific co-factor for the hydrolysis of GM2 ganglioside by β-hexosaminidase A. This assay (described in detail in Meier et al., J. Biol. Chem., 266:1879-1887, 1991) requires that the activator has a functional hydrophobic binding site.

PAF = assay: Calcium release assay in INDO-1 AM-loaded neutrophils; format: cell-based, human
Protocol: Neutrophils were isolated from heparinized venous blood collected from healthy volunteers as previously reported (Laneuville et al., Biochem. J. 295:393-397, 1993). Neutrophils (1 ml, 10^7 cells) were loaded with a […] solution of a fluorescent dye, INDO-1 AM (Calbiochem.) for use in calculating [Ca^2+]i as previously reported (Laneuville et al., supra; Reynaud and Pace-Asciak, Prostaglandins Leukot. Essent. Fatty Acids 56:9-12,1997). For each measurement, 2×10^6 cells were used in 1 ml of cell medium in a temperature-controlled (37° C.) plastic cuvette with continuous stirring. Varying concentrations of functional GM2 activator protein and non-functional truncated GM2 activator protein (i.e. 0, 0.32 and 0.8 nmol) were added to individual cuvettes. Following equilibration of the assay mix, PAF (0.002 nmol) was added and the increase in [Ca^2+]i calculated by a determination of fluorescence. Fluorescence was measured using a Perkin-Elmer fluorescence spectrophotometer as previously reported (Reynaud and Pace-Asciak, supra).
The PAF-response was inhibited by 75% when 800 pmol (15 μg/ml) of activator was present, but not at all in the presence of 800 pmol of the non-functional truncated activator.

GM2 activator protein = molecular target: T2, GM2 activator protein (Homo sapiens, UniProt P17900); assay: Fluorescence dequenching assay (R-18 transport between liposomes; ligand binding)
T2 construct: ID NO; His6 (N); made in house
T2 sequence (P17900 32-193): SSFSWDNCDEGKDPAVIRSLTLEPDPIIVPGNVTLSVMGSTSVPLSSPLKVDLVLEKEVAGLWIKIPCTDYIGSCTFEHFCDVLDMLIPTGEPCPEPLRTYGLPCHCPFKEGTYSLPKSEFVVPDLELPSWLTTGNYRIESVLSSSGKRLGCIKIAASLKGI
Protocol: The ability of the activator protein to bind GM2 ganglioside, PAF, N-formyl-Met-Leu-Phe (fMLP), or leukotriene B4 (LTB4) was assessed using a fluorescence dequenching assay. This assay was first used to evaluate the ability of the activator to transport a self-quenching fluorescence dye, R-18 (octadecylrhodamine conjugated to a saturated C-18 hydrocarbon chain) (obtained from Molecular Probes), between labeled and unlabeled liposomes (phosphatidylcholine containing large unilamellar vesicles, PC-LUV8). An increase in fluorescence over time when the activator protein and unlabeled liposomes were admixed with R-18 labeled liposomes indicates the ability of the activator to transport the R-18 dye, the fluorescence of which is proportional to concentration of dye that is transported to the unlabelled liposomes. […]
The R-18 labeled liposomes were prepared as follows. […] The column was then eluted with NHE buffer to yield a quantity of labeled liposomes sufficient for 10 assays.
In each fluorescence dequenching assay, 5 μg of activator protein was mixed with 630 nmol of unlabeled liposomes. […] The rate of increase in fluorescence emission was then determined by monitoring at 590 nm, using an excitation wavelength of 560 nm, on a 650-40 fluorometer (Perkin-Elmer). […]
The fluorescence dequenching of the R-18 liposome preparations was measured and calculated as follows. […]

transport of R-18 between labeled and unlabeled liposomes (GM2 activator protein; 5 μg activator, 37° C., pH 5, increase in fluorescence over time): found to transport R-18
slope of fluorescence dequenching (GM2 activator protein; activator in the absence of a ligand compound): 0.256 ΔFu/ΔT(min)
B1: functional activator: Non-glycosylated GM2 activator protein from His6-tag bacterial expression system, SEQ ID NO: 2 (protein)
chain: MRGSHHHHHHGSIEGRSSFSWDNCDEGKDPAVIRSLTLEPDPIVVPGNVTLSVVGSTSVPLSSPLKVDLVLEKEVAGLWIKIPCTDYIGSCTFEHFCDVLDMLIPTGEPCPEPLRTYGLPCHCPFKEGTYSLPKSEFVVPDLELPSWLTTGNYRIESVLSSSGKRLGCIKIAASLKGI
modifications: His6-tag; non-glycosylated; His tag at residues 1 to 17
specific activity as co-factor, compared with wild-type glycosylated precursor activator (CHO cells) (β-hexosaminidase A): functioned in a similar manner to the wildtype activator
inhibition of PAF-response (PAF; 800 pmol (15 μg/ml) of activator present, PAF 0.002 nmol): 75%
release of intracellular calcium pools into the cytosol after PAF (PAF; PAF added to cuvettes containing the functional activator): significant decrease
change in [Ca2+]i on addition of extracellular activator protein alone (PAF; added to suspension of INDO-1 AM-loaded cells, before PAF): did not result in a change in [Ca^2+]i
